Assay results from patent US20150284450A1, “COMBINATION THERAPIES USING ANTI-PSEUDOMONAS PSL AND PCRV BINDING MOLECULES” (priority 2012, published 2015).
Where a chain is given by its changes, count along the chain named. Numbers in names are those of the source.

Tests used:
[1] = tested on: P. aeruginosa 6206 (O11-ExoU+); experiment: Acute pneumonia model in mice, strain 6206; assay type: in vivo, Pseudomonas aeruginosa; conditions: 6206; W4-RAD 0.2 mg/kg; monitored 120 hours; FIG. 21A
Experimental: (§1) Antibodies or PBS were administered 24 hours before infection in each model. P. aeruginosa acute pneumonia, keratitis, and thermal injury infection models were performed as described (DiGiandomenico, A., et al., Proc Natl Acad Sci USA 104, 4624-4629 (2007)), with modifications. In the acute pneumonia model, BALB/c mice (The Jackson Laboratory) were infected with P. aeruginosa strains suspended in a 0.05 ml inoculum. In the thermal injury model, CF-1 mice (Charles River) received a 10% total body surface area burn with a metal brand heated to 92° C. for 10 seconds. Animals were infected subcutaneously with P. aeruginosa strain 6077 at the indicated dose. For organ burden experiments, acute pneumonia was induced in mice followed by harvesting of lungs, spleens, and kidneys 24 hours post-infection for determination of CFU.

[2] = tested on: P. aeruginosa 6294 (O6); experiment: Acute pneumonia model in mice, strain 6294; assay type: in vivo, Pseudomonas aeruginosa
Experimental: as §1

[3] = tested on: P. aeruginosa 6077 (O11-cytotoxic); experiment: Corneal infection (keratitis) model in mice, strain 6077; assay type: in vivo, Pseudomonas aeruginosa; conditions: C3H/HeN mice, IP dosing 16 hours prior to 6077 (1×10^6 CFU), FIG. 8H
Experimental: as §1
Cam-003 and WapR-004 efficacy was next evaluated in a P. aeruginosa corneal infection model which emphasizes the pathogens ability to attach and colonize damaged tissue. […] FIG. 8 (H): The activity of anti-Psl and anti-PcrV monoclonal antibodies V2L2 was tested in a P. aeruginosa mouse ocular keratitis model. C3H/HeN mice were injected intraperitoneally (IP) with PBS or a control IgG1 antibody (R347) at 45 mg/kg or WapR-004 (α-Psl) at 5 mg/kg or V2L2 (α-PcrV) at 5 mg/kg, 16 hours prior to infection with 6077 (O11-cytotoxic−1×10^6 CFU) Immediately before infection, mice were anesthetized followed by initiation of three 1 mm scratches on the cornea and superficial stroma of one eye of each mouse using a 27-gauge needle under a dissection microscope, followed by topical application of P. aeruginosa 6077 strain in a 5 μl inoculum. Eyes were photographed at 48 hours post infection followed by corneal grading by visualization of eyes under a dissection microscope. Grading of corneal infection was performed as previously described by Preston et al. (Preston, M J., 1995, Infect. Immun. 63:3497). Briefly, infected eyes were graded 48 h after infection with strain 6077 by an investigator who was unaware of the animal treatments. The following grading scheme was used: grade 0, eye macroscopically identical to an uninfected eye; grade 1, faint opacity partially covering the pupil; grade 2, dense opacity covering the pupil; grade 3, dense opacity covering the entire pupil; grade 4, perforation of the cornea (shrinkage of the eyeball).

[4] = tested on: P. aeruginosa serogroup 05 strain (PAO1.lux); experiment: Opsonophagocytic killing (OPK) assay with luminescent PAO1.lux, HL-60 cells and baby rabbit serum; assay type: cell-based, Pseudomonas aeruginosa; conditions: FIG. 10C, 11N-Q
Experimental: This example describes the evaluation of prioritized human IgG1 antibodies to promote OPK of P. aeruginosa. […] OPK assays were performed as described in (DiGiandomenico, A., et al., Infect Immun 72, 7012-7021 (2004)), with modifications. Briefly, assays were performed in 96-well plates using 0.025 ml of each OPK component; P. aeruginosa strains; diluted baby rabbit serum; differentiated HL-60 cells; and monoclonal antibody. In some OPK assays, luminescent P. aeruginosa strains, which were constructed as described (Choi, K. H., et al., Nat Methods 2, 443-448 (2005))., were used. Luminescent OPK assays were performed as described above but with determination of relative luciferase units (RLUs) using a Perkin Elmer ENVISION Multilabel plate reader (Perkin Elmer).

[5] = tested on: P. aeruginosa 6077 (exoU+); experiment: Rabbit red blood cell lysis inhibition assay with strain 6077; assay type: cell-based, Pseudomonas aeruginosa; conditions: strain 6077; FIG. 12D-E
Experimental: Percent inhibition of cytotoxicity analysis was analysed for the parental V2L2 mAb, mAb166 (positive control) and R347 (negative control), where the antibodies were administered to cultured broncho-epithelial cell line A549 combined with log-phase P. aeruginosa strain 6077 (exoU+) at a MOI of approximately 10. A549 lysis was assayed by measuring released lactate dehydrogenase (LDH) activity and lysis in the presence of mAbs was compared to wells without mAb to determine percent inhibition. The V2L2 mAb, mAb166 (positive control) and R347 (negative control) were evaluated for their ability to prevent lysis of RBCs, where the antibodies were mixed with log-phase P. aeruginosa 6077 (exoU^+) and washed rabbit red blood cells (RBCs) and incubated for 2 hours at 37°. Intact RBCs were pelleted and the extent of lysis determined by measuring the OD405 of the cell-free supernatant. Lysis in the presence of anti-PcrV mAbs was compared to wells without mAb to determine percent inhibition.

B1: WapR-004RAD: identical to WapR-004 except for substitution G98A of the VH; VH SEQ ID NO: 74, VL SEQ ID NO: 12 (antibody, V domains shown)
VH: EVQLLESGPGLVKPSETLSLTCNVAGGSISPYYWTWIRQPPGKGLELIGYIHSSGYTDYNPSLKSRVTISGDTSKKQFSLHVSSVTAADTAVYFCARADWDLLHALDIWGQGTLVTVSS
VL: EIVLTQSPSSLSTSVGDRVTITCRASQSIRSHLNWYQQKPGKAPKLLIYGASNLQSGVPSRFSGSGSGTDFTLTISSLQPEDFATYYCQQSYSFPLTFGGGTKLEIK
modifications: WapR-004RAD VH; WapR-004 & WarR-004RAD VL
Question: What does the source list for B1?
Answer: animals survived [1]: Approximately 90%; organ burden in lung, spleen and kidney ([2]; 2.5×10^7 CFU 6294, Bs2-/Bs3-V2L2 0.7 mg/kg, V2L2 or W4-RAD 0.5 mg/kg, FIG. 23A): no effect on decreasing organ burden; survival effect, in words ([2]; 6294, bispecifics 0.28 mg/kg, V2L2 or W4-RAD 0.2 mg/kg, FIG. 24): did not affect survival; bacterial CFU in total eye homogenates compared to R347 control [3]: reduced bacterial colony forming units (CFU) in total eye homogenates; corneal pathology compared to R347 control ([3]; graded 48 h after infection): significantly less pathology

B2: Psl0588: lead optimized anti-Psl clone; VH SEQ ID NO:292, VL SEQ ID NO:293 (antibody, V domains shown)
VH: QVQLQESGPGLVKPSETLSLTCTVSGGSISPYYWTWIRQPPGKGLELIGYIHSSGYTDYNPSLKSRVTISGDTSKKQFSLKLSSVTAADTAVYYCARADDPFPGYLDIWGQGTMVTVSS
VL: B1 VL with E1D, V3Q, T13A, Y92D, S93T, T97K, L104V
modifications: Psl0588-Germline VH
Question: How did the “OPK activity of lead optimized anti-Psl clones (basis of selection)” value (“OPK activity … (basis of selection)” for short) [4] turn out when B2 was run?
Answer: Its value is “enhanced OPK activity”.

B3: Psl0337: lead optimized anti-Psl clone; VH SEQ ID NO:295, VL SEQ ID NO:296 (antibody, V domains shown)
VH: B2 VH with D100W, P101D, F102H, P103K, G104H, Y105A
VL: B1 VL with E1D, V3Q, T13A, Q90D, Y92S, F94W, L104V
modifications: Psl0337-Germline VH; Psl0337-Germline VL
Question: B3 was tested. Which “OPK activity … (basis of selection)” value [4] did it give?
Answer: Its value is “enhanced OPK activity”.

B4: Psl0225: lead optimized anti-Psl clone; VH SEQ ID NO:290, VL SEQ ID NO:291 (antibody, V domains shown)
VH: B2 VH with D99M, P101I, F102E, G104H, Y105A
VL: B1 VL with E1D, V3Q, T13A, Y92D, S93D, F94G, P95F, L96P, T97N, L104V
modifications: Psl0225-Germline VH; Psl0225-Germline VL
Question: Which “OPK activity … (basis of selection)” value [4] does the source give for B4 here?
Answer: The value was “enhanced OPK activity”.

B5: V2L2-GL: V2L2-germlined mAb (antibody, V domains shown)
VH: EVQLLESGGGLVQPGGSLRLSCAASGFTFSSYAMNWVRQAPGKGLEWVSAITISGITAYYTDSVKGRFTISRDNSKNTLYLQMNSLRAEDTAVYYCAKEEFLPGTHYYYGMDVWGQGTTVTVSS
VL: AIQMTQSPSSLSASVGDRVTITCRASQGIRNDLGWYQQKPGKAPKLVIYSASTLQSGVPSRFSGSGSGTDFTLSISSLQPDDFATYYCLQDYNYPWTFGQGTKVEIK
modifications: V2L2-GL VH; V2L2-MD and V2L2-GL VL
notes: V2L2-germlined mAb
Question: How did the “prevention of RBC lysis” value [5] turn out when B5 was run?
Answer: The value was “demonstrated prevention of RBC lysis”.
